In IntAct's records for PubMed 34927784:

Legend:
cxcr4_human CXCR4 = cxcr4_human CXCR4 (UniProt P61073)
erep1_human ENTREP1 = erep1_human ENTREP1 (UniProt Q15884)
Sequence of erep1_human ENTREP1 (Q15884 whole entry): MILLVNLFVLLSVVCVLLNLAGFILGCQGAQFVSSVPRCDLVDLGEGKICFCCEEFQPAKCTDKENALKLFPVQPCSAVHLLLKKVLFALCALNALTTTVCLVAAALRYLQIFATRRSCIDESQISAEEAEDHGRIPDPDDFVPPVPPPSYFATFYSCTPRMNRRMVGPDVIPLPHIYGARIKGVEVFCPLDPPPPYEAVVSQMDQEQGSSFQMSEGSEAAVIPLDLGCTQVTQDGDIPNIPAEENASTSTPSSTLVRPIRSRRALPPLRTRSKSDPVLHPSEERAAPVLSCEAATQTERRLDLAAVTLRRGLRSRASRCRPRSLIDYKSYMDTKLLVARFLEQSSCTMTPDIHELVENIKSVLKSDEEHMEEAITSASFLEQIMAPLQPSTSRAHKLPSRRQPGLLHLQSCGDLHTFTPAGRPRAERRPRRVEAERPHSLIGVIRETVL

Sequence of E3 ubiquitin-protein ligase Itchy homolog (Homo sapiens), Q96J02-2 C830A (Q96J02 other isoform, or with tags, fused parts or gaps C830A): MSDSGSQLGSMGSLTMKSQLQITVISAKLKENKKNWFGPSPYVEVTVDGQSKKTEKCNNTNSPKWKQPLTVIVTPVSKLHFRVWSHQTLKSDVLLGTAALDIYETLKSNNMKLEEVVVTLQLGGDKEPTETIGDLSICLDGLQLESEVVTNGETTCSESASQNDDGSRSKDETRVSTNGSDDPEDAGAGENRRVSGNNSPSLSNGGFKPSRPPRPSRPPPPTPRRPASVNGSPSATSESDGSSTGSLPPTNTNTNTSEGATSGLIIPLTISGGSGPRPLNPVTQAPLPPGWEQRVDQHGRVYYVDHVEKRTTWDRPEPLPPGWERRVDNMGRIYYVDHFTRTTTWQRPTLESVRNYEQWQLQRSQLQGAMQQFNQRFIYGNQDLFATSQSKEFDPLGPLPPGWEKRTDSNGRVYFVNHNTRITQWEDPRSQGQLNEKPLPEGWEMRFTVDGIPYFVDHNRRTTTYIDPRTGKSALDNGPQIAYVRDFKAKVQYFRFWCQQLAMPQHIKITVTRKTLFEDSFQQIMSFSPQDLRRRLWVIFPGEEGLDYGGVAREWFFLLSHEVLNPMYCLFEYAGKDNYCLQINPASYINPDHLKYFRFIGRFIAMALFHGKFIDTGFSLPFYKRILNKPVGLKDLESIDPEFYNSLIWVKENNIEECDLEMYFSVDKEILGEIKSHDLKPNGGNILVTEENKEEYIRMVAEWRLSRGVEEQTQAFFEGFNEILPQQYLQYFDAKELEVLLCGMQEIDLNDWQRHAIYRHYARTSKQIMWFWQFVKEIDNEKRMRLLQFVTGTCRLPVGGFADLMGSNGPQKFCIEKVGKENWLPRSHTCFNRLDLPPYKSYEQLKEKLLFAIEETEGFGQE
Sequence of cxcr4_human CXCR4 (P61073 whole entry): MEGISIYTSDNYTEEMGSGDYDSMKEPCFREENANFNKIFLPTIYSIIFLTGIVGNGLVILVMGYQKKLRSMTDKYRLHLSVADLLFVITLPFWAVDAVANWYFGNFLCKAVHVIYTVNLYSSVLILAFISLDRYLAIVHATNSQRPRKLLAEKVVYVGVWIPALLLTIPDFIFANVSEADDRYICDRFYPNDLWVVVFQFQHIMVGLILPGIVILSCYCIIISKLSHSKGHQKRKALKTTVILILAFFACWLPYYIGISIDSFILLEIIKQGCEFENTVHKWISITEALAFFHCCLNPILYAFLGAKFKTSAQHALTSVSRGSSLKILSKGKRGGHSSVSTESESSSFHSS

E3 ubiquitin-protein ligase Itchy homolog (Homo sapiens), Q96J02-2 C830A
effect of a mutation on the interaction (cxcr4_human CXCR4): with no effect
effect of a mutation on the interaction (erep1_human ENTREP1): with no effect
